Data taken from the RNAGym collection of RNA variant scans (doi:10.7554/elife.80360).

B1: Hairpin Ribozyme (parent)
chain: GUCCUCUUUCACGUGCGCGUGAAAGAGAGAAGUGAACCAGAGAAACACACGUUGUGGUAUAUUACCUGGUA

Variants of: B1
Experiment: self-cleavage, relative activity (ratio to wild type); higher = more cleavage; co-transcriptional

Variant | self-cleavage
GUCCUCUUUCACGUGCGCGUGAAAGAGAGAAGUGAUCCAGAGAAACACACGUUGUGGCAUAUUACCUGGUA [A36U U58C] | 0.719
GUCCUCUUUCACGUGCGCGUGAAAGAGAGAAGUGAUCCAGAGAAACACACGUUGUGGGAUAUUACCUGGUA [A36U U58G] | 0.417
GUCCUCUUUCACGUGCGCGUGAAAGAGAGAAGUGAAACAGAGAAACACACGUUGUGGUAUAUUAACUGGUA [C37A C65A] | 0.259
GUCCUCUUUCACGUGCGCGUGAAAGAGAGAAGUGAAACAGAGAAACACACGUUGUGGUAUAUUAUCUGGUA [C37A C65U] | 0.261
GUCCUCUUUCACGUGCGCGUGAAAGAGAGAAGUGAUCCAGAGAAACACACGUUGUUGUAUAUUACCUGGUA [A36U G56U] | 0.21
GUCCUCUUUCACGUGCGCGUGAAAGAGAGAAGUGAAACAGAGAAACACACGUUGUGGUAUAUUACCUAGUA [C37A G68A] | 0.302
GUCCUCUUUCACGUGCGCGUGAAAGAGAGAAGUGAAACAGAGAAACACACAUUGUGGUAUAUUACCUGGUA [C37A G51A] | 0.535
GUCCUCUUUCACGUGCGCGUGAAAGAGAGAAGUGAUCCAGAGAAACAAACGUUGUGGUAUAUUACCUGGUA [A36U C48A] | 0.0449
GUCCUCUUUCACGUGCGCGUGAAAGAGAGAAGUGAAACAGAGAAACACACGUUGUGGUACAUUACCUGGUA [C37A U60C] | 0.337
GUCCUCUUUCACGUGCGCGUGAAAGAGAGAAGUGAUCCAGAGAAACACACUUUGUGGUAUAUUACCUGGUA [A36U G51U] | 0.648
GUCCUCUUUCACGUGCGCGUGAAAGAGAGAAGUGAAGCAGAGAAACACCCGUUGUGGUAUAUUACCUGGUA [C37G A49C] | 0.348
GUCCUCUUUCACGUGCGCGUGAAAGAGAGAAGUGAUCCAGAGAAACACACGUUGUGGUAUACUACCUGGUA [A36U U62C] | 0.185
GUCCUCUUUCACGUGCGCGUGAAAGAGAGAAGUGAUCCAGAGAAAUACACGUUGUGGUAUAUUACCUGGUA [A36U C46U] | 0.31
GUCCUCUUUCACGUGCGCGUGAAAGAGAGAAGUGAAACAGAAAAACACACGUUGUGGUAUAUUACCUGGUA [C37A G42A] | 0.124
GUCCUCUUUCACGUGCGCGUGAAAGAGAGAAGUGAUCCAGAGAAACACACGUUGUGGUAUAUUACCAGGUA [A36U U67A] | 0.235
GUCCUCUUUCACGUGCGCGUGAAAGAGAGAAGUGAUCCAGAGAAACACACGUUGUGGUAUAUUACCGGGUA [A36U U67G] | 0.177
GUCCUCUUUCACGUGCGCGUGAAAGAGAGAAGUGAUGCAGAGAAACACACGUUGUGGUAUAUUACCUGGUA [A36U C37G] | 0.149
GUCCUCUUUCACGUGCGCGUGAAAGAGAGAAGUGAUCCAGAGAAACACACGUUGUGGUAUAUUACCUCGUA [A36U G68C] | 0.129
GUCCUCUUUCACGUGCGCGUGAAAGAGAGAAGUGAUCCAGAGAAACACACGUUGUGGUAUAUUACCUAGUA [A36U G68A] | 0.106

Variant | self-cleavage
GUCCUCUUUCACGUGCGCGUGAAAGAGAGAAGUGAUCCAGAGAAACACACGUGGUGGUAUAUUACCUGGUA [A36U U53G] | 0.224
GUCCUCUUUCACGUGCGCGUGAAAGAGAGAAGUGAUCGAGAGAAACACACGUUGUGGUAUAUUACCUGGUA [A36U C38G] | 0.0875
GUCCUCUUUCACGUGCGCGUGAAAGAGAGAAGUGAAACAGAGAAACACACGUUUUGGUAUAUUACCUGGUA [C37A G54U] | 0.269
GUCCUCUUUCACGUGCGCGUGAAAGAGAGAAGUGAAACAGAGAAACACACGUUCUGGUAUAUUACCUGGUA [C37A G54C] | 0.114
GUCCUCUUUCACGUGCGCGUGAAAGAGAGAAGUGAAACAGAGAAACACACGUUAUGGUAUAUUACCUGGUA [C37A G54A] | 0.187
GUCCUCUUUCACGUGCGCGUGAAAGAGAGAAGUGAAACAGAGAAACACAGGUUGUGGUAUAUUACCUGGUA [C37A C50G] | 0.128
GUCCUCUUUCACGUGCGCGUGAAAGAGAGAAGUGAAACAGAGAAACACAAGUUGUGGUAUAUUACCUGGUA [C37A C50A] | 0.124
GUCCUCUUUCACGUGCGCGUGAAAGAGAGAAGUGAAGCAGAGAUACACACGUUGUGGUAUAUUACCUGGUA [C37G A44U] | 0.118
GUCCUCUUUCACGUGCGCGUGAAAGAGAGAAGUGAAGCAGAGAGACACACGUUGUGGUAUAUUACCUGGUA [C37G A44G] | 0.185
GUCCUCUUUCACGUGCGCGUGAAAGAGAGAAGUGAUCCAGAGAAACACACGUUGUGGUAUAUGACCUGGUA [A36U U63G] | 0.165
GUCCUCUUUCACGUGCGCGUGAAAGAGAGAAGUGAUCCAGAGAAACACACGUUGUGGUAUAUCACCUGGUA [A36U U63C] | 0.172
GUCCUCUUUCACGUGCGCGUGAAAGAGAGAAGUGAUCCAGAGAAACACACGUUGUGGUAUAUAACCUGGUA [A36U U63A] | 0.207
GUCCUCUUUCACGUGCGCGUGAAAGAGAGAAGUGAAACAGAGAAACACACGAUGUGGUAUAUUACCUGGUA [C37A U52A] | 0.484
GUCCUCUUUCACGUGCGCGUGAAAGAGAGAAGUGAUCCAGAGAAACACACGUUGUGCUAUAUUACCUGGUA [A36U G57C] | 0.172
GUCCUCUUUCACGUGCGCGUGAAAGAGAGAAGUGAAACGGAGAAACACACGUUGUGGUAUAUUACCUGGUA [C37A A39G] | 0.181
GUCCUCUUUCACGUGCGCGUGAAAGAGAGAAGUGAUCCAGAGAAACACACGUUGUGGUAUAUUACCUGGGA [A36U U70G] | 0.665
GUCCUCUUUCACGUGCGCGUGAAAGAGAGAAGUGAUCCAGAGAAACACACGUUGUGGUAUAUUACCUGGAA [A36U U70A] | 0.775
GUCCUCUUUCACGUGCGCGUGAAAGAGAGAAGUGAUCCAGAGAAACACACGUUGUGGUAUAUUACCUGGCA [A36U U70C] | 0.473
GUCCUCUUUCACGUGCGCGUGAAAGAGAGAAGUGAAACAGAGAAACACACGUUGUCGUAUAUUACCUGGUA [C37A G56C] | 0.174
